Laboratory results as given in article PMC2892321.

Biological target: postsynaptic density 95 (PSD95), wild type (mouse (endogenous in hippocampus and spinal cord)) (UniProt Q62108)
Assay: co-IP

Chain of postsynaptic density 95 (PSD95), wild type (mouse (endogenous in hippocampus and spinal cord)) (Q62108 whole entry): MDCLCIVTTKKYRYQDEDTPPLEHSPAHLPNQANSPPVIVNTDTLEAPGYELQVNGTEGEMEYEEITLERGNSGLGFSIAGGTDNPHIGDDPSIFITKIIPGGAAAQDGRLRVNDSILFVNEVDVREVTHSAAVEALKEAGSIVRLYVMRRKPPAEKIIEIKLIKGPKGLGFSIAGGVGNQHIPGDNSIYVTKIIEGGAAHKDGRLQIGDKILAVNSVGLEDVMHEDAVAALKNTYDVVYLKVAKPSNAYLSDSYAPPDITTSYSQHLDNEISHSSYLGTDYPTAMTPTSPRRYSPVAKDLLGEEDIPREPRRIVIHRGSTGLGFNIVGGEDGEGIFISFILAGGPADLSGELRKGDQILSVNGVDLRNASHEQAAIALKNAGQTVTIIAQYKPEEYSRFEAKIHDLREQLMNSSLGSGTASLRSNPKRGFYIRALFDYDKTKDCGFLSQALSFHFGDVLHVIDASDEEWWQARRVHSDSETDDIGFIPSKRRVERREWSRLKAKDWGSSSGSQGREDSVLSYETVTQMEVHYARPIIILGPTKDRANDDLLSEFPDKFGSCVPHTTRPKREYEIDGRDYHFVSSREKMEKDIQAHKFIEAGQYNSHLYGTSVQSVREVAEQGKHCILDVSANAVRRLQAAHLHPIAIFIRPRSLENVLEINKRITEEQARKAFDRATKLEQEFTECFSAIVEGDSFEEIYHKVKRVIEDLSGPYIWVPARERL

Q: How did the PI(3)K-C2α/PSD95 ratio (densitometry), ipsilateral to formalin turn out when “phosphatidylinositol-3-kinase-C2α (PI(3)K-C2α) (from UniProt Q61194 1-1686) (enzyme)” was run?
A: Its PI(3)K-C2α/PSD95 ratio (densitometry), ipsilateral to formalin is 0.053.

Q: What about the PI(3)K-C2α/PSD95 ratio (densitometry), naive of the same substance?
A: Its PI(3)K-C2α/PSD95 ratio (densitometry), naive is 0.019.
